Test [1] has as its target Phos-Sx4-GST (C-terminally GST-tagged Sx4 cytosolic domain harbouring two mutations Y115E and Y251E) (UniProt P70452). The test can be described thus: ITC; MicroCal VP-ITC; syntaxins (WT-Sx4 298 µM, Phos-Sx4 308.25 µM) titrated with SNAP23 (64 µM); nonlinear least squares fit. A general note: ITC needs no label: the signal is the heat of the interaction.
Test [2] has as its target WT-Sx4-GST (C-terminally GST-tagged Syntaxin 4 cytosolic domain) (UniProt P70452). The test is described as above.
The target in test [3] is m4 + m5 (ternary SNARE complex with His-SNAP23 and GST-VAMP2). Nature of the test: in vitro SNARE complex assembly assay (SDS-PAGE, anti-Sx4 immunoblot, ImageJ quantification). The settings on record: 5 µM Sx4-GST variant with equimolar GST-VAMP2 and His-SNAP23, 4 °C, 20 min; parent: est. 1.0; read off a plot. A general note: In western blotting, separated proteins are transferred to a membrane and probed.

With “His-SNAP23 (N-terminally His-tagged SNAP23) (from UniProt O09044 1-210) (natural protein)”, the Kd was 1.22 µM in test [1] and 5.6 µM in test [2].
With “WT-Sx4-GST (C-terminally GST-tagged Syntaxin 4 cytosolic domain) (from UniProt P70452) L173A; E174A”, in test [3], the ratio to parent came out at 1.5.

The term Kd denotes the concentration at which binding is half-saturated. Read a high Kd as weaker binding.

For the origin of these results see article PMC10741561.
